Data reported in US20240117035A1 (published 2024).

Biological target: CD3 on CD3+ Jurkat cells (human, UniProt P07766 23-207)
Experiment: FACS binding, Jurkat cells

Sequence of CD3 on CD3+ Jurkat cells (P07766 23-207): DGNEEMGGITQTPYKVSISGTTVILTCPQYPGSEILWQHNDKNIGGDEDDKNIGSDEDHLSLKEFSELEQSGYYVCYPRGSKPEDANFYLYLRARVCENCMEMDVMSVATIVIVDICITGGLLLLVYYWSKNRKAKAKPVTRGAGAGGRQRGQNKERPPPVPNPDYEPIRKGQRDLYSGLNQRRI

EC50: 26.5 nM
B1: m-13/CD3-v2 (antibody)
chain 1: QLQLQQSGTELVRPGSSVKISCKASGYAFSNYWMNWVKQRPGQGLEWIGQIYPGNGDTKYNGNFKGKATLTADKSSSTAYMQLSSLTSEDSADYFCARYYRGNCFDYWGQGTTLTVSS
chain 2: DIVLTQSPSSLTVTAGEKVTMSCKSSQSLLNSGNQKNYLTWYQQKPGQPPKLLIYWASTRDSGVPARFTGSGSGTDFTLTINSVQAEDLAVYYCQNAYTYPLTFGAGTKLEIK
chain 3: EVQLVESGGGLVKPGGSLKLSCAASGFTFSTYAMNWVRQAPGKGLEWVARIRSKYNNYATTYADSVKDRFTISRDDSKNTAYLQMNNLRTEDTAVYYCVRHGNWGNSYISYWAYWGQGTTVTVSS
chain 4: not shown
